Data published in patent US20210139607A1 (JACKSON LABORATORY, published 2021).

Target: T1, human N-glycanase 1 (NGLY-1) (human, UniProt Q96IV0 2-654)
T1 construct: Endogenous protein in cell lysates, denatured on immunoblots; also called human NGLY1 protein
T1 sequence (looked up): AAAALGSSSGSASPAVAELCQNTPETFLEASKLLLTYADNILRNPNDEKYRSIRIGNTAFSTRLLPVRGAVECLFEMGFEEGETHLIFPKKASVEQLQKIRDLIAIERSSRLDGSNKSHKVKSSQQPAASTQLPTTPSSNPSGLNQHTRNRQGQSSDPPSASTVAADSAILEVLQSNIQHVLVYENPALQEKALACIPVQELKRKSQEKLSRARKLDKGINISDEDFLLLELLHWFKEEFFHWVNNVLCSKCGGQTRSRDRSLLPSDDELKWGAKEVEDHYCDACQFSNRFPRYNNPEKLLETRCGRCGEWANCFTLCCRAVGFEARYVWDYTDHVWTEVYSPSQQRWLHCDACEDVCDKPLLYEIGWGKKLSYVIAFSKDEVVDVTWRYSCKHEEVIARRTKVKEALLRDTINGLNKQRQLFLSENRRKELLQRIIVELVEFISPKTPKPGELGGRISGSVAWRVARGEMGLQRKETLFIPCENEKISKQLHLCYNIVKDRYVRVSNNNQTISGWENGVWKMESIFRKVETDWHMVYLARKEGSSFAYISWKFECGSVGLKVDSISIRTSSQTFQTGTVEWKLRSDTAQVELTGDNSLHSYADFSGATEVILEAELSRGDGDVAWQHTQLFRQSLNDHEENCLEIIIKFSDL
Test: immunoblot on isogenic human NGLY1 null and wild type iPS cell lines
Procedure: The conjugate was injected into female BALB/cJ mice at a dose of 10 μg per mouse with Alum adjuvant. Mice were immunized by i.p injection three times approximately two (2) weeks apart. Ten days after the third immunization, splenocytes were isolated and fused with SP2 myeloma cells to create hybridoma cell lines. Hybridomas were cultured in 96-well plates and supernatants screened on protein arrays and by ELISA. Positive clones were further validated by western blot using lysates prepared from C57BL/6J and the CRISPR/Cas9 generated null strain as positive and negative controls. Additional immunoblots were used to identify additional clones that generated antibodies capable of cross reacting with human NGLY1 protein. Isogenic human derived NGLY1 null and wild type iPS cell lines providing positive and negative controls evaluation of anti-human NGLY1 cross-reactivity were provided. A single hybridoma gave rise to clone 5G8 that generated an antibody that was specific to both murine and human NGLY1 protein and was used for subsequent studies.

binding result: binds
B1: mouse anti-NGly-1 monoclonal antibody, clone 5G8 (antibody, V domains shown)
VH: QVQLQQSGAELVRPGTSVKVSCKASGYAFINYLIEWVKQRPGQGLEWIGIISPGSGSTNYNEEFRGRATLTADRSSSTAYMQLSSLTSDDSAVYFCARGGLTHYSGSTYEEGFDFWGQGTTLTVSS
VL: QAVVTQESALTTSPGETVTLTCRSSTGAVTTTNYANWVQEKPDHLFTGLIGGTNNRAPGVPARFSGSLIGDKAALTITGAQTDDEAIYFCALWYSNRWVFGGGTKLTVLG
notes: also called anti-NGly-1 monoclonal antibody of the present disclosure; Mouse monoclonal (anti-mouse peptide), JAX Monoclonal Service
